Measured values published in patent US6869925 (Amgen, dated 2005).

Tests used:
[1] = target: SLPI binding sites on HuT78 cells (human T cell line) (human); experiment: 125I-SLPI saturation binding, intact HuT78 cells, *SLPI at 5120 pM
[2] = target: SLPI binding sites on U937 cells (human monocyte cell line; intact cells, PMA-induced cells or plasma membranes) (human); experiment: competition with 125I-SLPI, intact U937 cells, competitor at 860 nM
[3] = target: SLPI binding sites on U937 cells (human monocyte cell line; intact cells, PMA-induced cells or plasma membranes) (human); experiment: 125I-SLPI saturation binding, U937 cells plus PMA, *SLPI at 80 pM
[4] = target: SLPI binding sites on HuT78 cells (human T cell line) (human); experiment: competition with 125I-SLPI, intact HuT78 cells, competitor at 0.80 nM
[5] = target: SLPI binding sites on HuT78 cells (human T cell line) (human); experiment: 125I-SLPI saturation binding, intact HuT78 cells, *SLPI at 80 pM
[6] = target: SLPI binding sites on HuT78 cells (human T cell line) (human); experiment: competition with 125I-SLPI, intact HuT78 cells, cold SLPI at 0.25 nM
[7] = target: SLPI binding sites on U937 cells (human monocyte cell line; intact cells, PMA-induced cells or plasma membranes) (human); experiment: Scatchard plot of 125I-SLPI saturation binding, PMA-induced U937 cells
[8] = target: SLPI binding sites on U937 cells (human monocyte cell line; intact cells, PMA-induced cells or plasma membranes) (human); experiment: competition with 125I-SLPI, intact U937 cells, Kd by Cheng-Prusoff
[9] = target: SLPI binding sites on U937 cells (human monocyte cell line; intact cells, PMA-induced cells or plasma membranes) (human); experiment: competition with 125I-SLPI, U937 plasma membranes, Kd by Cheng-Prusoff
[10] = target: SLPI binding sites on U937 cells (human monocyte cell line; intact cells, PMA-induced cells or plasma membranes) (human); experiment: competition with 125I-SLPI, intact U937 cells, competitor at 270 nM
[11] = target: SLPI binding sites on U937 cells (human monocyte cell line; intact cells, PMA-induced cells or plasma membranes) (human); experiment: 125I-SLPI saturation binding, intact U937 cells, *SLPI at 40 pM
[12] = target: SLPI binding sites on U937 cells (human monocyte cell line; intact cells, PMA-induced cells or plasma membranes) (human); experiment: 125I-SLPI saturation binding, intact U937 cells, *SLPI at 80 pM
[13] = target: SLPI binding sites on HuT78 cells (human T cell line) (human); experiment: 125I-SLPI saturation binding, intact HuT78 cells, *SLPI at 640 pM
[14] = target: SLPI binding sites on U937 cells (human monocyte cell line; intact cells, PMA-induced cells or plasma membranes) (human); experiment: 125I-SLPI saturation binding, intact U937 cells, *SLPI at 20,480 pM

serine leukocyte protease inhibitor (SLPI), sequence (P03973 26-132): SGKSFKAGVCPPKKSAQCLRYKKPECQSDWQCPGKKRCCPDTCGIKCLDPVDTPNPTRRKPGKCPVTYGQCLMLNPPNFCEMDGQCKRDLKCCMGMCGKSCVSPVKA

bound pM [1]: 13.5 pM
bound per free [1]: 0.0026
sites bound per cell (sites per cell) [1]: 813
specific cpm [1]: 538 cpm
% *SLPI BOUND [2]: 4%
bound pM [3]: 32 pM
bound per free [3]: 0.67
sites bound per cell (sites per cell) [3]: 1910
specific cpm [3]: 339 cpm
% *SLPI BOUND [4]: 79%
bound pM [5]: 0.75 pM
bound per free [5]: 0.0095
sites bound per cell (sites per cell) [5]: 45
specific cpm [5]: 30 cpm
% *SLPI BOUND [6]: 69%
Kd [7]: 1 nM
Kd [8]: 2 nM
Kd [9]: 2 nM
% *SLPI BOUND [10]: 5%
bound *SLPI (pM) [11]: 9.5 pM
bound per free [11]: 0.311
sites bound per cell (sites per cell) [11]: 572
specific cpm [11]: 380 cpm
bound *SLPI (pM) [12]: 13.6 pM
bound per free [12]: 0.205
sites bound per cell (sites per cell) [12]: 819
specific cpm [12]: 543 cpm
bound pM [13]: 2.53 pM
bound per free [13]: 0.0039
sites bound per cell (sites per cell) [13]: 152
specific cpm [13]: 101 cpm
bound *SLPI (pM) [14]: 471 pM
bound per free [14]: 0.024
sites bound per cell (sites per cell) [14]: 28400
specific cpm [14]: 18800 cpm
Substance: serine leukocyte protease inhibitor (SLPI) (from UniProt P03973 26-132)
